Reference: ChEMBL document CHEMBL1135749, “Stereoselective synthesis and antiviral activity of D-2',3'-didehydro-2',3'-dideoxy-2'-fluoro-4'-thionucleosides” (J Med Chem, 2002)

Molecular target: Adenosine deaminase (Bos taurus) (UniProt P56658)
Assay: Binding efficiency towards mammalian Adenosine deaminase from calf intestinal mucosa

B1: Adenosine deaminase (Bos taurus), P56658 (protein)
chain: MAQTPAFNKPKVELHVHLDGAIKPETILYYGRKRGIALPADTPEELQNIIGMDKPLSLPEFLAKFDYYMPAIAGCREAVKRIAYEFVEMKAKDGVVYVEVRYSPHLLANSKVEPIPWNQAEGDLTPDEVVSLVNQGLQEGERDFGVKVRSILCCMRHQPSWSSEVVELCKKYREQTVVAIDLAGDETIEGSSLFPGHVKAYAEAVKSGVHRTVHAGEVGSANVVKEAVDTLKTERLGHGYHTLEDATLYNRLRQENMHFEVCPWSSYLTGAWKPDTEHPVVRFKNDQVNYSLNTDDPLIFKSTLDTDYQMTKNEMGFTEEEFKRLNINAAKSSFLPEDEKKELLDLLYKAYGMPSPASAEQCL
B1 was tested. Which Km did it give?
The Km was 18.3 µM.
